Patent US20090123371A1

Molecular target: EphA2 receptor tyrosine kinase (human) (UniProt P29317)
Test: cell-based or functional assay

“DT390-ephrinA1 (from UniProt P00588 33-422)” gave a cell proliferation assay, U-251 MG GBM cells of 15 nM.
